In article PMC8794821, “SNX27 suppresses SARS-CoV-2 infection by inhibiting viral lysosome/late endosome entry” (Proceedings of the National Academy of Sciences of the …, 2022):
No end group written: not given here.

Target: PDZ domain of SNX27 (residues 40 to 135) (human, UniProt Q96L92 40-135)
Assay: ITC; MicroCal iTC200, 25 °C; ACE2-PBM peptide (125 µM, 5% DMSO) in the syringe, PDZ protein (100 µM, 5% DMSO) in the cell; 20 mM Tris pH 8.0, 150 mM NaCl
Conditions: both partners purified

B1: ACE2-PBM peptide (-DDVQTSF-COO−) (peptide)
peptide: DDVQTSF-OH
notes: also called human ACE2-PBM; source: synthetic peptide (Beijing SciLight Biotechnology Ltd. Co.)
  Kd: 20 µM
